Data taken from IntAct's records for PubMed 19427866.

Target: T1, nbr1_human NBR1 (UniProt Q14596)
T1 sequence: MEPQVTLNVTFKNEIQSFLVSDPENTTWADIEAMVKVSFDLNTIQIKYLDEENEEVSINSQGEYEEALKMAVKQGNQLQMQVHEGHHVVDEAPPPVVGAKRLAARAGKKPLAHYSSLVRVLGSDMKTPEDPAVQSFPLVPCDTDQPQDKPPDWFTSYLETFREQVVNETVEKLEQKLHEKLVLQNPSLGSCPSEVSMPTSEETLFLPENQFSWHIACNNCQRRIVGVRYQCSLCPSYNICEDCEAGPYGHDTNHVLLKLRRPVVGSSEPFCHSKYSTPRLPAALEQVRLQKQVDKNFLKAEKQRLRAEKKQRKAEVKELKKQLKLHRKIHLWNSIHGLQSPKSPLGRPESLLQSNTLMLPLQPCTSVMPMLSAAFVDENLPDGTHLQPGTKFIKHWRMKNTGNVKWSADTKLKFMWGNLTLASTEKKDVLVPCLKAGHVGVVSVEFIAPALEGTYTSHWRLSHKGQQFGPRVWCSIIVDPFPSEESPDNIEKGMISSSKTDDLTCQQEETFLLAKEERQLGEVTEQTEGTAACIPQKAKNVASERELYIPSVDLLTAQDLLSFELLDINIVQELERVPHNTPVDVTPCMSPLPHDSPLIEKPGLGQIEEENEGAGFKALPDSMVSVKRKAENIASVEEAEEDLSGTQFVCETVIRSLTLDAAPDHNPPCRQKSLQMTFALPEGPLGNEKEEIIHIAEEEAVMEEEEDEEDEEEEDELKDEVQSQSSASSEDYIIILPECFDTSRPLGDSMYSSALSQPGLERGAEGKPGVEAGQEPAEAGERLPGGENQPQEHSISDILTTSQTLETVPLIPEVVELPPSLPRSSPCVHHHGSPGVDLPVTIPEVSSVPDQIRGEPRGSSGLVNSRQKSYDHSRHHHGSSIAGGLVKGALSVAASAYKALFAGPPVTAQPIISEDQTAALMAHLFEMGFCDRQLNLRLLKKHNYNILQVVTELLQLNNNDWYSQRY

Row | Substance | effect of a mutation on the interaction
1 | Polyubiquitin-C (Homo sapiens) (from UniProt P0CG48) K33R | decreasing interaction
2 | Polyubiquitin-C (Homo sapiens) (from UniProt P0CG48) K48R | decreasing interaction
3 | Polyubiquitin-C (Homo sapiens) (from UniProt P0CG48) K63R | decreasing interaction
